Legend:
HeLa Kyoto [1] = assay: thermal stability score vs G1/S (z-score of summed log2 fold changes over temperatures); higher = more thermally stable than in G1/S
HeLa Kyoto [2] = assay: solubility in G1/S (NP-40 vs SDS abundance) (log2 ratio); higher = more soluble; conditions: cell cycle stage: G1/S
HeLa Kyoto [3] = assay: melting temperature (median over replicates), in situ; higher = more thermally stable
HeLa Kyoto [4] = assay: solubility change mitosis vs G1/S (difference of NP-40 vs SDS log2 ratios) (log2 ratio difference); higher = more soluble in mitosis
[5] = cell cycle stage: early G1 (4.5 h after nocodazole release)
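For melting temperature (median over replicates), in situ in this document: HeLa Kyoto cells synchronized by double thymidine or nocodazole block, proteins quantified by TMT10plex mass spectrometry, three independent biological replicates.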
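For solubility change mitosis vs G1/S (difference of NP-40 vs SDS log2 ratios) in this document: synchronized HeLa Kyoto cells (double thymidine block for G1/S, nocodazole release for mitosis), protein amounts in NP-40 versus SDS lysates quantified by mass spectrometry, three biological replicates.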
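For solubility in G1/S (NP-40 vs SDS abundance) in this document: HeLa Kyoto cells arrested at G1/S by double thymidine block, proteins quantified by TMT10plex mass spectrometry in mild NP-40 versus SDS extracts, three biological replicates.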
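For thermal stability score vs G1/S (z-score of summed log2 fold changes over temperatures) in this document: synchronized HeLa Kyoto cells, proteins quantified by TMT10plex mass spectrometry, three biological replicates, mitosis taken 0.5 h after nocodazole release, G1/S directly after double thymidine block.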

Chain of COL12A1 (chain, as listed by the source): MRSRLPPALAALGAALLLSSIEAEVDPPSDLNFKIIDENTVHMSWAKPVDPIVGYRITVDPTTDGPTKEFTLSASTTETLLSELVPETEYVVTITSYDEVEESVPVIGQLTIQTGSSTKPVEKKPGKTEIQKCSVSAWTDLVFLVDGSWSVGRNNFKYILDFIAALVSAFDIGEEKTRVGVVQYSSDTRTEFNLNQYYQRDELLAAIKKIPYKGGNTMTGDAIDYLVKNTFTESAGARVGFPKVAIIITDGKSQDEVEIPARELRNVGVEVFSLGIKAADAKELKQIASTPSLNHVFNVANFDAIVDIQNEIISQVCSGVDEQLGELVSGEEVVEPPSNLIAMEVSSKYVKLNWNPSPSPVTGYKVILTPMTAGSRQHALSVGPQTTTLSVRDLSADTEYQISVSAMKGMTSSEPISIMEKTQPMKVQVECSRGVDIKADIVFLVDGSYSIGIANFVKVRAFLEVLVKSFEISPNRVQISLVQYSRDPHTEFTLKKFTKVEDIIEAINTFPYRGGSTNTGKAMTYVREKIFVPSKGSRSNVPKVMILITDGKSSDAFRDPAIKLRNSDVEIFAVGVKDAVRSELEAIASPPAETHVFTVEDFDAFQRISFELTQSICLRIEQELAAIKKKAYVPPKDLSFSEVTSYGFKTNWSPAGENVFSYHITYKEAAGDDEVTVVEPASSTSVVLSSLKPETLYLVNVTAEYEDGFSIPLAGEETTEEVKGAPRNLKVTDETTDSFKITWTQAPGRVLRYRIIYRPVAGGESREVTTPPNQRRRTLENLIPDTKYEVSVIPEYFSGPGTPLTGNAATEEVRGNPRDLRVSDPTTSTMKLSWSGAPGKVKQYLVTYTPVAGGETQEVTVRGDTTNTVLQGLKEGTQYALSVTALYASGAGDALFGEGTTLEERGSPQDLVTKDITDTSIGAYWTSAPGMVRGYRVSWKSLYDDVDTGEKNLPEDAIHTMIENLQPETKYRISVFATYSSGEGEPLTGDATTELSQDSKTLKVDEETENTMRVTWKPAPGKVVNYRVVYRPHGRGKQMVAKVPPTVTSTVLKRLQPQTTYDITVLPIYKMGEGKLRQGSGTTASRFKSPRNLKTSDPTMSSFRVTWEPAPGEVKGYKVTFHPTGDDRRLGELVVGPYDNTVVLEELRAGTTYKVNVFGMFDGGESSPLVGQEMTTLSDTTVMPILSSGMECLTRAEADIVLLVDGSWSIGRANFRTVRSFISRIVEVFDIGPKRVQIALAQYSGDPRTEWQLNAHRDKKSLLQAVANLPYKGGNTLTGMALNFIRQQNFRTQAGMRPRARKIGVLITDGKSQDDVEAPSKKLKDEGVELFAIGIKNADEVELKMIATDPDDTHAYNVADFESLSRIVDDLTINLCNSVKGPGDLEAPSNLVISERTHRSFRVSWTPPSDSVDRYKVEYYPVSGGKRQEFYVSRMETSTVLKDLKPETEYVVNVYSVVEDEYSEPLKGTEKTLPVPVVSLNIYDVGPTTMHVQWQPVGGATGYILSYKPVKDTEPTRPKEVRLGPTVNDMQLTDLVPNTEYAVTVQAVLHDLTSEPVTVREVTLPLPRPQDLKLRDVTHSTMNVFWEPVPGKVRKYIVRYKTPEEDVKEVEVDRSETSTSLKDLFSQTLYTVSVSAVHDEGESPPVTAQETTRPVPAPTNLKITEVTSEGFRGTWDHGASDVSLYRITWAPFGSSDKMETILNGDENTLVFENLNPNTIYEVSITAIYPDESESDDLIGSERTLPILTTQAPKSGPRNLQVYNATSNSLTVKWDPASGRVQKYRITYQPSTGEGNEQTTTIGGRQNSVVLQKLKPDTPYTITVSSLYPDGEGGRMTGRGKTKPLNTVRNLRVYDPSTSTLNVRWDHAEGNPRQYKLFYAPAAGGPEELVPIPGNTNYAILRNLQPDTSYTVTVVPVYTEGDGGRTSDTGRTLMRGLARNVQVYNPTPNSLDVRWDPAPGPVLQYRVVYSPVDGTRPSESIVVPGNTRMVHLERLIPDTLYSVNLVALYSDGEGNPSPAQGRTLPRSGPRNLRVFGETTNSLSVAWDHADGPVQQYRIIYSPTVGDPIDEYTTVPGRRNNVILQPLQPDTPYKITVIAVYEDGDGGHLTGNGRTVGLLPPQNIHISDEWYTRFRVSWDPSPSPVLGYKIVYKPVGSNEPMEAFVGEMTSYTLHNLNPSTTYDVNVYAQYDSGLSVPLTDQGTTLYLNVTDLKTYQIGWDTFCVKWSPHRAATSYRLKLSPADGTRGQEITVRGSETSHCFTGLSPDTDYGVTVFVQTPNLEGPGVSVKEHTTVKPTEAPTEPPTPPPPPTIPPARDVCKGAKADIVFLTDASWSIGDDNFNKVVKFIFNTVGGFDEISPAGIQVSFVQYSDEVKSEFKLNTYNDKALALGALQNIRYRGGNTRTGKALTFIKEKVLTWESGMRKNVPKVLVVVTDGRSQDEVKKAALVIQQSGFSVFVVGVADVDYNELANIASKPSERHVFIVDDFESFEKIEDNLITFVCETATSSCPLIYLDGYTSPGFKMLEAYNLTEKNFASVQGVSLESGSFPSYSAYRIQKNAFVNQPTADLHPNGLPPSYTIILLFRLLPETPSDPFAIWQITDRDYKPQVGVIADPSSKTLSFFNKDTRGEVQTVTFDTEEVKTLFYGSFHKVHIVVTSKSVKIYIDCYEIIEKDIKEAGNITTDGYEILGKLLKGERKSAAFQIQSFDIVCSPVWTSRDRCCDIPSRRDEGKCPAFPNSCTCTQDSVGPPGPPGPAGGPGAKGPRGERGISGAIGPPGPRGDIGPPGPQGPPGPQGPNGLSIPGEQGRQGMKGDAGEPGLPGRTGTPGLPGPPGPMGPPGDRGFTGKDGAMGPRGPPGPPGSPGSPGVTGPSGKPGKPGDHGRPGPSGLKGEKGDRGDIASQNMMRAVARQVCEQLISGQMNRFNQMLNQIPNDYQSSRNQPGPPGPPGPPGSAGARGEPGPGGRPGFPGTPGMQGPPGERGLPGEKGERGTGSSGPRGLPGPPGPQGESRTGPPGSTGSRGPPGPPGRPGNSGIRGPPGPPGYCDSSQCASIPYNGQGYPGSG

Row | Substance | thermal stability score (HeLa Kyoto [1]; [5]) | thermal stability score (HeLa Kyoto [1]; cell cycle stage: mitosis) | solubility in G1/S (log2) (HeLa Kyoto [2]) | melting temperature (HeLa Kyoto [3]; cell cycle stage: G1/S) | melting temperature (HeLa Kyoto [3]; cell cycle stage: mitosis) | solubility change mitosis (log2) (HeLa Kyoto [4])
1 | MIRAAPPPLFLLLLLLLLLVSWASRGEAAPDQDEIQRLPGLAKQPSFRQYSGYLKGSGSKHLHYWFVESQKDPENSPVVLWLNGGPGCSSLDGLLTEHGPFLVQPDGVTLEYNPYSWNLIANVLYLESPAGVGFSYSDDKFYATNDTEVAQSNFEALQDFFRLFPEYKNNKLFLTGESYAGIYIPTLAVLVMQDPSMNLQGLAVGNGLSSYEQNDNSLVYFAYYHGLLGNRLWSSLQTHCCSQNKCNFYDNKDLECVTNLQEVARIVGNSGLNIYNLYAPCAGGVPSHFRYEKDTVVVQDLGNIFTRLPLKRMWHQALLRSGDKVRMDPPCTNTTAASTYLNNPYVRKALNIPEQLPQWDMCNFLVNLQYRRLYRSMNSQYLKLLSSQKYQILLYNGDVDMACNFMGDEWFVDSLNQKMEVQRRPWLVKYGDSGEQIAGFVKEFSHIAFLTIKGAGHMVPTDKPLAAFTMFSRFLNKQPY [CTSA] | 0.798 | 2.87 | 0.138 | 54.5 °C | 57 °C | -0.0924
2 | MSDVEENNFEGRESRSQSKSPTGTPARVKSESRSGSRSPSRVSKHSESHSRSRSKSRSRSRRHSHRRYTRSRSHSHSHRRRSRSRSYTPEYRRRRSRSHSPMSNRRRHTGSRANPDPNTCLGVFGLSLYTTERDLREVFSRYGPLSGVNVVYDQRTGRSRGFAFVYFERIDDSKEAMERANGMELDGRRIRVDYSITKRAHTPTPGIYMGRPTHSGGGGGGGGGGGGGGGGRRRDSYYDRGYDRGYDRYEDYDYRYRRRSPSPYYSRYRSRSRSRSYSPRRY [TRA2A] | 1.2 | 1.92 | -1.11 | 49.1 °C | 49.5 °C | 0.522
3 | MGRVVAELVSSLLGLWLLLCSCGCPEGAELRAPPDKIAIIGAGIGGTSAAYYLRQKFGKDVKIDLFEREEVGGRLATMMVQGQEYEAGGSVIHPLNLHMKRFVKDLGLSAVQASGGLLGIYNGETLVFEESNWFIINVIKLVWRYGFQSLRMHMWVEDVLDKFMRIYRYQSHDYAFSSVEKLLHALGGDDFLGMLNRTLLETLQKAGFSEKFLNEMIAPVMRVNYGQSTDINAFVGAVSLSCSDSGLWAVEGGNKLVCSGLLQASKSNLISGSVMYIEEKTKTKYTGNPTKMYEVVYQIGTETRSDFYDIVLVATPLNRKMSNITFLNFDPPIEEFHQYYQHIVTTLVKGELNTSIFSSRPIDKFGLNTVLTTDNSDLFINSIGIVPSVREKEDPEPSTDGTYVWKIFSQETLTKAQILKLFLSYDYAVKKPWLAYPHYKPPEKCPSIILHDRLYYLNGIECAASAMEMSAIAAHNAALLAYHRWNGHTDMIDQDGLYEKLKTEL [PCYOX1] | 1.46 | 0.959 | 0.102 | 56.6 °C | 57.1 °C | -0.225
4 | SRSF6 | -0.248 | -2.07 | -0.646 | 49.8 °C | 50.6 °C | 0.385
5 | MEAADASRSNGSSPEARDARSPSGPSGSLENGTKADGKDAKTTNGHGGEAAEGKSLGSALKPGEGRSALFAGNEWRRPIIQFVESGDDKNSNYFSMDSMEGKRSPYAGLQLGAAKKPPVTFAEKGELRKSIFSESRKPTVSIMEPGETRRNSYPRADTGLFSRSKSGSEEVLCDSCIGNKQKAVKSCLVCQASFCELHLKPHLEGAAFRDHQLLEPIRDFEARKCPVHGKTMELFCQTDQTCICYLCMFQEHKNHSTVTVEEAKAEKETELSLQKEQLQLKIIEIEDEAEKWQKEKDRIKSFTTNEKAILEQNFRDLVRDLEKQKEEVRAALEQREQDAVDQVKVIMDALDERAKVLHEDKQTREQLHSISDSVLFLQEFGALMSNYSLPPPLPTYHVLLEGEGLGQSLGNFKDDLLNVCMRHVEKMCKADLSRNFIERNHMENGGDHRYVNNYTNSFGGEWSAPDTMKRYSMYLTPKGGVRTSYQPSSPGRFTKETTQKNFNNLYGTKGNYTSRVWEYSSSIQNSDNDLPVVQGSSSFSLKGYPSLMRSQSPKAQPQTWKSGKQTMLSHYRPFYVNKGNGIGSNEAP [TRIM29] | -0.827 | -1.46 | -0.308 | 50.6 °C | 50.9 °C | 0.303
6 | MNKLYIGNLSENAAPSDLESIFKDAKIPVSGPFLVKTGYAFVDCPDESWALKAIEALSGKIELHGKPIEVEHSVPKRQRIRKLQIRNIPPHLQWEVLDSLLVQYGVVESCEQVNTDSETAVVNVTYSSKDQARQALDKLNGFQLENFTLKVAYIPDEMAAQQNPLQQPRGRRGLGQRGSSRQGSPGSVSKQKPCDLPLRLLVPTQFVGAIIGKEGATIRNITKQTQSKIDVHRKENAGAAEKSITILSTPEGTSAACKSILEIMHKEAQDIKFTEEIPLKILAHNNFVGRLIGKEGRNLKKIEQDTDTKITISPLQELTLYNPERTITVKGNVETCAKAEEEIMKKIRESYENDIASMNLQAHLIPGLNLNALGLFPPTSGMPPPTSGPPSAMTPPYPQFEQSETETVHLFIPALSVGAIIGKQGQHIKQLSRFAGASIKIAPAEAPDAKVRMVIITGPPEAQFKAQGRIYGKIKEENFVSPKEEVKLEAHIRVPSFAAGRVIGKGGKTVNELQNLSSAEVVVPRDQTPDENDQVVVKITGHFYACQVAQRKIQEILTQVKQHQQQKALQSGPPQSRRK [IGF2BP3] | 0.549 | 0.841 | 0.241 | 46.9 °C | 47.6 °C | 0.0855
7 | MPNSEPASLLELFNSIATQGELVRSLKAGNASKDEIDSAVKMLVSLKMSYKAAAGEDYKADCPPGNPAPTSNHGPDATEAEEDFVDPWTVQTSSAKGIDYDKLIVRFGSSKIDKELINRIERATGQRPHHFLRRGIFFSHRDMNQVLDAYENKKPFYLYTGRGPSSEAMHVGHLIPFIFTKWLQDVFNVPLVIQMTDDEKYLWKDLTLDQAYSYAVENAKDIIACGFDINKTFIFSDLDYMGMSSGFYKNVVKIQKHVTFNQVKGIFGFTDSDCIGKISFPAIQAAPSFSNSFPQIFRDRTDIQCLIPCAIDQDPYFRMTRDVAPRIGYPKPALLHSTFFPALQGAQTKMSASDPNSSIFLTDTAKQIKTKVNKHAFSGGRDTIEEHRQFGGNCDVDVSFMYLTFFLEDDDKLEQIRKDYTSGAMLTGELKKALIEVLQPLIAEHQARRKEVTDEIVKEFMTPRKLSFDFQ [WARS] | -0.453 | -0.825 | 0.127 | 56.7 °C | 56.3 °C | -0.199
8 | MAPSGSLAVPLAVLVLLLWGAPWTHGRRSNVRVITDENWRELLEGDWMIEFYAPWCPACQNLQPEWESFAEWGEDLEVNIAKVDVTEQPGLSGRFIITALPTIYHCKDGEFRRYQGPRTKKDFINFISDKEWKSIEPVSSWFGPGSVLMSSMSALFQLSMWIRTCHNYFIEDLGLPVWGSYTVFALATLFSGLLLGLCMIFVADCLCPSKRRRPQPYPYPSKKLLSESAQPLKKVEEEQEADEEDVSEEEAESKEGTNKDFPQNAIRQRSLGPSLATDKS [TMX1] | 0.556 | 1.24 | -0.0895 | 54.7 °C | 55.9 °C | -0.034
9 | MQSNKTFNLEKQNHTPRKHHQHHHQQQHHQQQQQQPPPPPIPANGQQASSQNEGLTIDLKNFRKPGEKTFTQRSRLFVGNLPPDITEEEMRKLFEKYGKAGEVFIHKDKGFGFIRLETRTLAEIAKVELDNMPLRGKQLRVRFACHSASLTVRNLPQYVSNELLEEAFSVFGQVERAVVIVDDRGRPSGKGIVEFSGKPAARKALDRCSEGSFLLTTFPRPVTVEPMDQLDDEEGLPEKLVIKNQQFHKEREQPPRFAQPGSFEYEYAMRWKALIEMEKQQQDQVDRNIKEAREKLEMEMEAARHEHQVMLMRQDLMRRQEELRRMEELHNQEVQKRKQLELRQEEERRRREEEMRRQQEEMMRRQQEGFKGTFPDAREQEIRMGQMAMGGAMGINNRGAMPPAPVPAGTPAPPGPATMMPDGTLGLTPPTTERFGQAATMEGIGAIGGTPPAFNRAAPGAEFAPNKRRRY [NONO] | 4.71 | 11.4 | -0.113 | 46.6 °C | 47.8 °C | 0.501
10 | COL12A1 | 4.88 | 5.9 | -0.1 | 53.8 °C | 54.9 °C | -0.124
11 | MAKTYDYLFKLLLIGDSGVGKTCLLFRFSEDAFNTTFISTIGIDFKIRTIELDGKKIKLQIWDTAGQERFRTITTAYYRGAMGIMLVYDITNEKSFDNIKNWIRNIEEHASSDVERMILGNKCDMNDKRQVSKERGEKLAIDYGIKFLETSAKSSANVEEAFFTLARDIMTKLNRKMNDSNSAGAGGPVKITENRSKKTSFFRCSLL [RAB8B] | 1.55 | 0.563 | -0.16 | 55.9 °C | 54 °C | -0.0727
